From patent publication US20100015126A1, “Methods of Binding of Cross-Beta Structures By Chaperones” (priority 2006, published 2010)

Experiments:
human BiP [1] = target: T1, human BiP (Homo sapiens, UniProt P11021); experiment: ELISA: binding of BiP-FLAG-His to immobilized (misfolded) protein ligands; details: ligands coated at 5 μg/ml; 6BB peptides and oxLDL 50 μg/ml
T1 construct: The human BiP gene except the signal peptide encoding region was obtained from Geneart (Germany); linker […]; made in house; host or cells: HEK 293E cells, transient transfection, PABC674 vector; secreted into the medium
T1 sequence (P11021 19-654): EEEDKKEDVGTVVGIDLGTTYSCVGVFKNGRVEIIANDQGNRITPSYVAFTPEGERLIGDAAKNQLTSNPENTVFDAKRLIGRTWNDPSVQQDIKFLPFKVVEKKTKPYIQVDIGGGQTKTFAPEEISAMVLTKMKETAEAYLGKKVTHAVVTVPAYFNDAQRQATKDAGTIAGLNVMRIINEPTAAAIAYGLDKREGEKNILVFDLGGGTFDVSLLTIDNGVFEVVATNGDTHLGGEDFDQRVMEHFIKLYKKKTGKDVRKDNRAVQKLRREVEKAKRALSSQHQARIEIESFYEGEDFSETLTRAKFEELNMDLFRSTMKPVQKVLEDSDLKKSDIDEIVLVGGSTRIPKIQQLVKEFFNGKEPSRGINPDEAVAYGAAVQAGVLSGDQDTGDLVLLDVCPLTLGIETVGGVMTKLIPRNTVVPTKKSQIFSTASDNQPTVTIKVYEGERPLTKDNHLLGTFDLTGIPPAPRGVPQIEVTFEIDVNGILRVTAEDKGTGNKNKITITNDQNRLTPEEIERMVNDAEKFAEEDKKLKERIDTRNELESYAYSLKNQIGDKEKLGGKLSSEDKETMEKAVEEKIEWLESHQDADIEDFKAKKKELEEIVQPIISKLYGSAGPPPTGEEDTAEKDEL
Method: Enzyme Linked Immunosorbent Assay for Testing of Chaperone Binding to Misfolded Proteins
(§1) Binding of chaperones to immobilized (misfolded) protein ligands was determined using an enzyme linked immuno sorbent assay (ELISA) approach. For this purpose 50 μl/well of potential ligands at indicated concentrations or coat buffer only for control and background measurement purposes, were coated overnight at 4° C. or coated for 1 h at room temperature, with motion, in 50 mM NaHCO3 pH 9.6 (coat buffer). In general, ligands were coated at 5 μg/ml, unless stated otherwise. For example, BiP binding peptides 6BB# and oxLDL were coated at 50 μg/ml. Native haemoglobin (Sigma-Aldrich, H7379), albumin, IgIV Gammagard and ovalbumin controls were prepared from lyophilized stocks. The controls were prepared by dissolving lyophilized proteins at 1 mg/ml in PBS upon resuspending by pipetting, followed by a 30 minutes period at the roller device, at room temperature. The protein solutions were centrifuged for 10 minutes at 16,000*g and diluted in coat buffer. After coating the plates were washed at least three times with 50 mM Tris-HCl pH 7.3, 150 mM NaCl, 0.1% v/v Tween20, and blocked with Blocking reagent (Roche Diagnostics, Almere, The Netherlands; 11112589001), for 1 h at room temperature, with motion. Plates were washed three times and incubated in triplicate with indicated chaperone dilution series, at 50 μl/well, for 1 h at room temperature, with constant motion. For HSP90, 5 mM DTT is incorporated in the binding buffer (PBS/0.1% Tween20) to avoid unwanted disulfide bond formation of the HSP90. Plates were washed three times and incubated with anti-FLAG antibody (mouse antibody, M2, peroxidase conjugate; Sigma, A-8592) for BiP-FLAG-His, anti-His-tag antibody (Mouse Monoclonal Antibody, Cat. No. 70796, Novagen [0.2 mg/ml]) for HSP60, a 1:1 mix of 500-fold diluted anti-HSP90beta antibodies (Stressgen, SPA-643 [mouse monoclonal IgM], SPA-646 [rabbit polyclonal]) for HSP90 and an anti-DnaK antibody (Stressgen, 023SPA-880D [mouse monoclonal antibody]) for DnaK. After four wash cycles, secondary antibodies were added to the wells when required, 50 μl/well, for 45′ at room temperature, with motion. RAMPO and SWARPO were used at 3000 times dilution. […] In a second experiment with more immobilized misfolded proteins and controls, the detection of bound HSP90 with the mix of two anti-HSP90 antibodies was achieved by mixing 1:1500 SWARPO with 1:3000 RAMPO. After 5 washes with wash buffer followed by two washes with PBS, binding of antibodies was assessed. Bound anti-FLAG-PO, peroxidase-conjugated rabbit anti-mouse immunoglobulins (RAMPO, P0260, DAKOCytomation, Glostrup, Denmark) or peroxidase-coupled swine anti-rabbit immunoglobulins (SWARPO, P0217, DAKOCytomation) was visualized with tetramethylbenzidine (TMB, #45.01.20,/#45.014.01, Biosource, Nivelles, Belgium). The reaction was stopped after 5 minutes with 1% H2SO4 in H2O. Plates were read at 450 nm. Triplicates were averaged and standard deviations calculated. Background signals obtained with buffer-coated wells were subtracted (binding of primary antibody to empty wells), as well as background signals obtained with ligand-coated wells in which the chaperones were omitted (binding of primary and secondary antibody to coated ligands). Subsequently, sub-optimal concentrations of chaperones for binding to misfolded protein ligands are determined, and these concentrations are used for inhibition studies. […] We have previously identified that a sub-fraction of IgIV molecules has affinity for misfolded proteins comprising crossbeta structure (pending patent application). Moreover, we identified that the sub-fraction of IgIV molecules directly binds to crossbeta structure and/or crossbeta structure induced conformation (not shown; pending patent application). […]

[2] = target: T2, Escherichia coli HSP70 family member DnaK (Escherichia coli, UniProt P0A6Y8); experiment: ELISA: binding of DnaK to immobilized (misfolded) protein ligands
T2 construct: purchased Stressgen (Ann Arbor, Mich., USA) SPP-630
T2 sequence (P0A6Y8 whole entry): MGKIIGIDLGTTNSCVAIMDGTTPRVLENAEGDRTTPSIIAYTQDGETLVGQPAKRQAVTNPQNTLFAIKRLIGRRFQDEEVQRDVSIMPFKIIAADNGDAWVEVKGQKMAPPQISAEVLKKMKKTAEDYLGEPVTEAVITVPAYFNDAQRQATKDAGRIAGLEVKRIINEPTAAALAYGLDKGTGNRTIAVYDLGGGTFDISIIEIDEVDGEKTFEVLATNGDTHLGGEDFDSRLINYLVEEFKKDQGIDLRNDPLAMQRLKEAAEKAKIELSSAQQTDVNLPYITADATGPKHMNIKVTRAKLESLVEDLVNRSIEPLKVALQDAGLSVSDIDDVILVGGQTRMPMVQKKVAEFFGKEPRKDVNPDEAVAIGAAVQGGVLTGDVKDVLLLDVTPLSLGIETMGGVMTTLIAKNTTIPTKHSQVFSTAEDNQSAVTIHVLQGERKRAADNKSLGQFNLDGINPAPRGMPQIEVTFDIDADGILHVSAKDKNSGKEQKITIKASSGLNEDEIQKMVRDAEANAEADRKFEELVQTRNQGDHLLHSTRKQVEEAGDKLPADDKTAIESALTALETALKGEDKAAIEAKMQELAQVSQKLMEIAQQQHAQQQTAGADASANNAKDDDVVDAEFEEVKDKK
Method: Recombinant Escherichia coli (E. coli) DnaK was purchased from Stressgen (Ann Arbor, Mich., USA; SPP-630). For the binding studies first lot B502468 (100 μg, lot A) and then lot 05240609 (200 μg, lot B) was used.
as §1

human BiP [3] = target: T1, human BiP; experiment: Competition ELISA: BiP binding to misfolded proteins under influence of crossbeta binding compounds; details: fixed sub-optimal BiP concentration
Method: Binding of chaperones to immobilized (misfolded) protein ligands was determined using an enzyme linked immuno sorbent assay (ELISA) approach. For this purpose 50 μl/well of potential ligands at indicated concentrations or coat buffer only for control and background measurement purposes, were coated overnight at 4° C. or coated for 1 h at room temperature, with motion, in 50 mM NaHCO3 pH 9.6 (coat buffer). In general, ligands were coated at 5 μg/ml, unless stated otherwise. For example, BiP binding peptides 6BB# and oxLDL were coated at 50 μg/ml. Native haemoglobin (Sigma-Aldrich, H7379), albumin, IgIV Gammagard and ovalbumin controls were prepared from lyophilized stocks. The controls were prepared by dissolving lyophilized proteins at 1 mg/ml in PBS upon resuspending by pipetting, followed by a 30 minutes period at the roller device, at room temperature. The protein solutions were centrifuged for 10 minutes at 16,000*g and diluted in coat buffer. After coating the plates were washed at least three times with 50 mM Tris-HCl pH 7.3, 150 mM NaCl, 0.1% v/v Tween20, and blocked with Blocking reagent (Roche Diagnostics, Almere, The Netherlands; 11112589001), for 1 h at room temperature, with motion. Plates were washed three times and incubated in triplicate with indicated chaperone dilution series, at 50 μl/well, for 1 h at room temperature, with constant motion. For HSP90, 5 mM DTT is incorporated in the binding buffer (PBS/0.1% Tween20) to avoid unwanted disulfide bond formation of the HSP90. […] After four wash cycles, secondary antibodies were added to the wells when required, 50 μl/well, for 45′ at room temperature, with motion. RAMPO and SWARPO were used at 3000 times dilution. […] In a second experiment with more immobilized misfolded proteins and controls, the detection of bound HSP90 with the mix of two anti-HSP90 antibodies was achieved by mixing 1:1500 SWARPO with 1:3000 RAMPO. After 5 washes with wash buffer followed by two washes with PBS, binding of antibodies was assessed. Bound anti-FLAG-PO, peroxidase-conjugated rabbit anti-mouse immunoglobulins (RAMPO, P0260, DAKOCytomation, Glostrup, Denmark) or peroxidase-coupled swine anti-rabbit immunoglobulins (SWARPO, P0217, DAKOCytomation) was visualized with tetramethylbenzidine (TMB, #45.01.20,/#45.014.01, Biosource, Nivelles, Belgium). The reaction was stopped after 5 minutes with 1% H2SO4 in H2O. Plates were read at 450 nm. Triplicates were averaged and standard deviations calculated. Background signals obtained with buffer-coated wells were subtracted (binding of primary antibody to empty wells), as well as background signals obtained with ligand-coated wells in which the chaperones were omitted (binding of primary and secondary antibody to coated ligands). Subsequently, sub-optimal concentrations of chaperones for binding to misfolded protein ligands are determined, and these concentrations are used for inhibition studies.
In a subsequent study we analysed whether BiP interacts directly with the crossbeta structure, by performing ELISA binding studies with a fixed sub-optimal concentration of BiP and concentration series of crossbeta binding compounds. The results are depicted in FIGS. 12, 13 and Table 7. Binding of BiP without added crossbeta binding compounds was set to 100%.

[4] = target: T3, human mitochondrial HSP60 (Homo sapiens, UniProt P10809); experiment: ELISA: binding of HSP60 to immobilized (misfolded) protein ligands
T3 construct: Dr. W. van Eden, Utrecht University; host or cells: E. coli
T3 sequence (P10809 27-573): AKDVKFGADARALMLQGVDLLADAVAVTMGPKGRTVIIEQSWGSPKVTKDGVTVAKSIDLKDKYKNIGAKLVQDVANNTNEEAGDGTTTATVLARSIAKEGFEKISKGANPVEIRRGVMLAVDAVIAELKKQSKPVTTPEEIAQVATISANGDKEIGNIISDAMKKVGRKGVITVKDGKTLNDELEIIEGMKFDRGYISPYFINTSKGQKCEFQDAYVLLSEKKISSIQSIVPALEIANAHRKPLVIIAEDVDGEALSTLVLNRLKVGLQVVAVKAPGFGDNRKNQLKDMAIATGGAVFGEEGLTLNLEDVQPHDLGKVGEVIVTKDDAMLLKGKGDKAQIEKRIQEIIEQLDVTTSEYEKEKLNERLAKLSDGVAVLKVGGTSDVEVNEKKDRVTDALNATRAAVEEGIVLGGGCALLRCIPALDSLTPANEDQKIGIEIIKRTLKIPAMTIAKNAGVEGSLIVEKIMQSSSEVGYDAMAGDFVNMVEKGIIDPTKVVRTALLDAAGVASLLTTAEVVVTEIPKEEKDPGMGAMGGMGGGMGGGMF
Method: Recombinant human HSP60 with N-terminal His-tag was a kind gift of Dr. R. van der Zee and Prof. Dr. W. van Eden (Institute of Infectious Diseases and Immunology, Faculty of Veterinary Medicine, Utrecht University, Utrecht, The Netherlands), and was supplied in lyophilized form. The HSP60 was produced in E. coli and purified using Nickel-Sepharose. The HSP60 was lyophilized from 20-40 mM ammonium-bicarbonate solution, after purification, and stored at −20° C. The construct lacks the mitochondrial signal sequence. […] Before use, the lyophilized protein is dissolved at room temperature at 1 mg/ml in 20-40 mM NH4HCO3, resulting in a pH of 7.0. Aliquots are stored at −20° C. or −80° C. The mitochondrial HSP60 is a functional dimer of heptamers (MW(HSP60 monomer)=˜58 kDa), and is involved in multimer protein assembling and aids in transport of unfolded proteins across membranes. For the binding studies, at two occasions separate HSP60 solutions were prepared originating from the same batch of purified protein, lyophilized in separate Eppendorf cups.
Binding of chaperones to immobilized (misfolded) protein ligands was determined using an enzyme linked immuno sorbent assay (ELISA) approach. For this purpose 50 μl/well of potential ligands at indicated concentrations or coat buffer only for control and background measurement purposes, were coated overnight at 4° C. or coated for 1 h at room temperature, with motion, in 50 mM NaHCO3 pH 9.6 (coat buffer). In general, ligands were coated at 5 μg/ml, unless stated otherwise. For example, BiP binding peptides 6BB# and oxLDL were coated at 50 μg/ml. Native haemoglobin (Sigma-Aldrich, H7379), albumin, IgIV Gammagard and ovalbumin controls were prepared from lyophilized stocks. The controls were prepared by dissolving lyophilized proteins at 1 mg/ml in PBS upon resuspending by pipetting, followed by a 30 minutes period at the roller device, at room temperature. The protein solutions were centrifuged for 10 minutes at 16,000*g and diluted in coat buffer. After coating the plates were washed at least three times with 50 mM Tris-HCl pH 7.3, 150 mM NaCl, 0.1% v/v Tween20, and blocked with Blocking reagent (Roche Diagnostics, Almere, The Netherlands; 11112589001), for 1 h at room temperature, with motion. Plates were washed three times and incubated in triplicate with indicated chaperone dilution series, at 50 μl/well, for 1 h at room temperature, with constant motion. For HSP90, 5 mM DTT is incorporated in the binding buffer (PBS/0.1% Tween20) to avoid unwanted disulfide bond formation of the HSP90. Plates were washed three times and incubated with anti-FLAG antibody (mouse antibody, M2, peroxidase conjugate; Sigma, A-8592) for BiP-FLAG-His, anti-His-tag antibody (Mouse Monoclonal Antibody, Cat. No. 70796, Novagen [0.2 mg/ml]) for HSP60, a 1:1 mix of 500-fold diluted anti-HSP90beta antibodies (Stressgen, SPA-643 [mouse monoclonal IgM], SPA-646 [rabbit polyclonal]) for HSP90 and an anti-DnaK antibody (Stressgen, 023SPA-880D [mouse monoclonal antibody]) for DnaK. After four wash cycles, secondary antibodies were added to the wells when required, 50 μl/well, for 45′ at room temperature, with motion. RAMPO and SWARPO were used at 3000 times dilution. […] In a second experiment with more immobilized misfolded proteins and controls, the detection of bound HSP90 with the mix of two anti-HSP90 antibodies was achieved by mixing 1:1500 SWARPO with 1:3000 RAMPO. After 5 washes with wash buffer followed by two washes with PBS, binding of antibodies was assessed. Bound anti-FLAG-PO, peroxidase-conjugated rabbit anti-mouse immunoglobulins (RAMPO, P0260, DAKOCytomation, Glostrup, Denmark) or peroxidase-coupled swine anti-rabbit immunoglobulins (SWARPO, P0217, DAKOCytomation) was visualized with tetramethylbenzidine (TMB, #45.01.20,/#45.014.01, Biosource, Nivelles, Belgium). The reaction was stopped after 5 minutes with 1% H2SO4 in H2O. Plates were read at 450 nm. […]

Substance | Binding of concentration series of BiP to coated ligand (human BiP [1]) | Binding of concentration series of DnaK to coated ligand [2] | Influence of Congo red on interaction of BiP with misfolded protein (human BiP [3]; concentration series of Congo red) | Influence of ThS on interaction of BiP with misfolded protein (human BiP [3]; concentration series of ThS) | Influence of ThT on interaction of BiP with misfolded protein (human BiP [3]; concentration series of ThT) | Binding of concentration series of HSP60 to coated ligand [4]
RRRAA [6BB13] | no BiP binding was observed | did not bind |  |  |  | 
FWGLWPWE [6BB11] | has been established | did not bind | ↓ (a ↓ sign refers to inhibited abolished binding of BiP) | ↓ (a ↓ sign refers to inhibited abolished binding of BiP) | ↓ (a ↓ sign refers to inhibited abolished binding of BiP) | 
YVDRFIGW [6BB8] | no BiP binding was observed | did not bind |  |  |  | 
fibrin: fibrin immobilized in wells from fibrinogen and factor IIa | has been established | has been established |  |  |  | has been established
